{"source": "patent US20030082746", "molecules": {"B1": {"name": "proline specific peptidase (svPEP) produced by S. mobaraense IFO13819 (protein)", "chain": "QADIKDRILKIPGMKFVEEKPYQGYRYLVMTYRQPVDHRNPGKGTFEQRFTLLHKDTDRPTVFFTSGYNVSTNPSRSEPTRIVDGNQVSMEYRFFTPSRPQPADWSKLDIWQAASDQHRLYQALKPVYGKNWLATGGSKGGMTATYFRRFYPNDMNGTVAYVAPNDVNDKEDSAYDKFFQNVGDKACRTQLNSVQREALVRRDEIVARYEKWAKENGKTFKVVGSADKAYENVVLDLVWSFWQYHLQSDCASVPATKASTDELYKFIDDISGFDGYTDQGLERFTPYYYQAGTQLGAPTVKNPHLKGVLRYPGINQPRSYVPRDIPMTFRPGAMADVDRWVREDSRNMLFVYGQNDPWSGEPFRLGKGAAARHDYRFYAPGGNHGSNIAQLVADERAKATAEVLKWAGVAPQAVQKDEKAAKPLAPFDAKLDRVKNDKQSALRP"}}, "key": {"[1]": {"system": "T1, pro-transglutaminase derived from S. mobaraense IFO13819 (transglutaminase having the pro-structure part)", "T1 sequence": "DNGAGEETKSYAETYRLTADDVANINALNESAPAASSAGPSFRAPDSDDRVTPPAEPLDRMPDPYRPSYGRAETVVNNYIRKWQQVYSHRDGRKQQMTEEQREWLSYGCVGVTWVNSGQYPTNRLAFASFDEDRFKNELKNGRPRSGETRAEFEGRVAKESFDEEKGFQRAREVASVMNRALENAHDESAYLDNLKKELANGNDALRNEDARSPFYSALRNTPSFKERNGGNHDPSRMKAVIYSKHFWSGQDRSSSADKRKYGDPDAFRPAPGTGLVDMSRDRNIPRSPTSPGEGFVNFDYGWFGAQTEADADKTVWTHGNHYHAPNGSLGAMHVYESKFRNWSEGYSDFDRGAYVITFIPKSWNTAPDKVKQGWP"}, "GP-βNA": {"biological_target": "T2, GP-βNA", "T2 chain": "GP"}, "Suc-AAPF-pNA": {"biological_target": "T3, Suc-AAPF-pNA", "T3 chain": "AAPF"}, "AAP-pNA": {"biological_target": "T4, AAP-pNA", "T4 chain": "AAP"}, "AAPL-pNA": {"biological_target": "T5, AAPL-pNA", "T5 chain": "AAPL"}, "Z-AGP-βNA": {"biological_target": "T6, Z-AGP-βNA", "T6 chain": "AGP"}, "AAA-pNA": {"biological_target": "T7, AAA-pNA", "T7 chain": "AAA"}, "AFP-pNA": {"biological_target": "T8, AFP-pNA", "T8 chain": "AFP"}, "PSFRAP-pNA": {"biological_target": "T9, PSFRAP-pNA", "T9 chain": "PSFRAP"}, "DP-pNA": {"biological_target": "T10, DP-pNA", "T10 chain": "DP"}, "Z-GAP-βNA": {"biological_target": "T11, Z-GAP-βNA", "T11 chain": "GAP"}, "AP-pNA": {"biological_target": "T12, AP-pNA", "T12 chain": "AP"}, "AAF-pNA": {"biological_target": "T13, AAF-pNA", "T13 chain": "AAF"}, "[2]": {"biological_target": "T14, pro-transglutaminase derived from S. mobaraense IFO13819 (transglutaminase having the pro-structure part)", "T14 chain": "T1 sequence"}, "FRAP-pNA": {"biological_target": "T15, FRAP-pNA", "T15 chain": "FRAX"}, "Bz-FVR-pNA": {"biological_target": "T16, Bz-FVR-pNA", "T16 chain": "FVR"}, "Z-GP-βNA": {"biological_target": "T17, Z-GP-βNA", "T17 chain": "GP"}, "RP-pNA": {"biological_target": "T18, RP-pNA", "T18 chain": "RP"}, "SFRAP-pNA": {"biological_target": "T19, SFRAP-pNA", "T19 chain": "SFRAP"}}, "data": [{"molecule": "Dispase (Boeringer Manheim Co. Ltd.)", "values": [{"measurement": "cleavage of the pro-transglutaminases by Dispase digestion (SDS-PAGE)", "setting": "[1]", "result": "the cleavage of the pro-transglutaminases was confirmed by SDS-PAGE"}]}, {"molecule": "B1", "values": [{"measurement": "relative activity (%)", "setting": "GP-βNA", "result": 0.4, "unit": "%"}, {"measurement": "relative activity (%)", "setting": "Suc-AAPF-pNA", "result": 0.01, "unit": "%"}, {"measurement": "relative activity (%)", "setting": "AAP-pNA", "result": 100, "unit": "%"}, {"measurement": "relative activity (%)", "setting": "AAPL-pNA", "result": 0.3, "unit": "%"}, {"measurement": "relative activity (%)", "setting": "Z-AGP-βNA", "result": 0.78, "unit": "%"}, {"measurement": "relative activity (%)", "setting": "AAA-pNA", "result": 8.5, "unit": "%"}, {"measurement": "relative activity (%)", "setting": "AFP-pNA", "result": 26.3, "unit": "%"}, {"measurement": "relative activity (%)", "setting": "PSFRAP-pNA", "result": 0.2, "unit": "%"}, {"measurement": "relative activity (%)", "setting": "DP-pNA", "result": 0, "unit": "%"}, {"measurement": "relative activity (%)", "setting": "Z-GAP-βNA", "result": 1.2, "unit": "%"}, {"measurement": "relative activity (%)", "setting": "AP-pNA", "result": 0.53, "unit": "%"}, {"measurement": "relative activity (%)", "setting": "AAF-pNA", "result": 4.1, "unit": "%"}, {"measurement": "N-terminal amino acid sequence of the cleaved transglutaminase (SAMP45 and svPEP co-secreted)", "setting": "[2]", "result": "it had the same sequence as the naturally occurring transglutaminase derived from S. mobaraense having Asp as the N-terminal amino acid"}, {"measurement": "relative activity (%)", "setting": "FRAP-pNA", "result": 49, "unit": "%"}, {"measurement": "relative activity (%)", "setting": "Bz-FVR-pNA", "result": 0.002, "unit": "%"}, {"measurement": "relative activity (%)", "setting": "Z-GP-βNA", "result": 0.04, "unit": "%"}, {"measurement": "relative activity (%)", "setting": "RP-pNA", "result": 0.94, "unit": "%"}, {"measurement": "relative activity (%)", "setting": "SFRAP-pNA", "result": 1.23, "unit": "%"}]}]}
